Source: article PMC5359885

Columns and labels:
[1] = target: purified human spectrin (Sigma) (human) (UniProt P02549); assay: ELISA; spectrin coated on the plate; serially diluted His-tagged protein in PBS, overnight at 4 °C; detected with anti-His tag antibody; Scatchard analysis
[2] = target: F-actin (G-actin from Cytoskeleton polymerized to F-actin) (UniProt P68135); assay: co-sedimentation; Actin Binding Protein Spin-Down Assay kit; F-actin (7 μM) incubated with His-tagged protein (SURFIN4.2^WRD2-His 12.5 to 0.0 μM; His control 7.0 μM; Pf332^WRD 4.2 μM) at room temperature 30 min; 150,000×g 1.5 h at 24 °C; Western blot of supernatant and pellet, densitometry, one-site specific binding model
[3] = target: Spectrin (Homo sapiens) (UniProt P02549); conditions: cited from earlier work

Sequence of UniProt P02549 (P02549 whole entry, chain 1 of 2): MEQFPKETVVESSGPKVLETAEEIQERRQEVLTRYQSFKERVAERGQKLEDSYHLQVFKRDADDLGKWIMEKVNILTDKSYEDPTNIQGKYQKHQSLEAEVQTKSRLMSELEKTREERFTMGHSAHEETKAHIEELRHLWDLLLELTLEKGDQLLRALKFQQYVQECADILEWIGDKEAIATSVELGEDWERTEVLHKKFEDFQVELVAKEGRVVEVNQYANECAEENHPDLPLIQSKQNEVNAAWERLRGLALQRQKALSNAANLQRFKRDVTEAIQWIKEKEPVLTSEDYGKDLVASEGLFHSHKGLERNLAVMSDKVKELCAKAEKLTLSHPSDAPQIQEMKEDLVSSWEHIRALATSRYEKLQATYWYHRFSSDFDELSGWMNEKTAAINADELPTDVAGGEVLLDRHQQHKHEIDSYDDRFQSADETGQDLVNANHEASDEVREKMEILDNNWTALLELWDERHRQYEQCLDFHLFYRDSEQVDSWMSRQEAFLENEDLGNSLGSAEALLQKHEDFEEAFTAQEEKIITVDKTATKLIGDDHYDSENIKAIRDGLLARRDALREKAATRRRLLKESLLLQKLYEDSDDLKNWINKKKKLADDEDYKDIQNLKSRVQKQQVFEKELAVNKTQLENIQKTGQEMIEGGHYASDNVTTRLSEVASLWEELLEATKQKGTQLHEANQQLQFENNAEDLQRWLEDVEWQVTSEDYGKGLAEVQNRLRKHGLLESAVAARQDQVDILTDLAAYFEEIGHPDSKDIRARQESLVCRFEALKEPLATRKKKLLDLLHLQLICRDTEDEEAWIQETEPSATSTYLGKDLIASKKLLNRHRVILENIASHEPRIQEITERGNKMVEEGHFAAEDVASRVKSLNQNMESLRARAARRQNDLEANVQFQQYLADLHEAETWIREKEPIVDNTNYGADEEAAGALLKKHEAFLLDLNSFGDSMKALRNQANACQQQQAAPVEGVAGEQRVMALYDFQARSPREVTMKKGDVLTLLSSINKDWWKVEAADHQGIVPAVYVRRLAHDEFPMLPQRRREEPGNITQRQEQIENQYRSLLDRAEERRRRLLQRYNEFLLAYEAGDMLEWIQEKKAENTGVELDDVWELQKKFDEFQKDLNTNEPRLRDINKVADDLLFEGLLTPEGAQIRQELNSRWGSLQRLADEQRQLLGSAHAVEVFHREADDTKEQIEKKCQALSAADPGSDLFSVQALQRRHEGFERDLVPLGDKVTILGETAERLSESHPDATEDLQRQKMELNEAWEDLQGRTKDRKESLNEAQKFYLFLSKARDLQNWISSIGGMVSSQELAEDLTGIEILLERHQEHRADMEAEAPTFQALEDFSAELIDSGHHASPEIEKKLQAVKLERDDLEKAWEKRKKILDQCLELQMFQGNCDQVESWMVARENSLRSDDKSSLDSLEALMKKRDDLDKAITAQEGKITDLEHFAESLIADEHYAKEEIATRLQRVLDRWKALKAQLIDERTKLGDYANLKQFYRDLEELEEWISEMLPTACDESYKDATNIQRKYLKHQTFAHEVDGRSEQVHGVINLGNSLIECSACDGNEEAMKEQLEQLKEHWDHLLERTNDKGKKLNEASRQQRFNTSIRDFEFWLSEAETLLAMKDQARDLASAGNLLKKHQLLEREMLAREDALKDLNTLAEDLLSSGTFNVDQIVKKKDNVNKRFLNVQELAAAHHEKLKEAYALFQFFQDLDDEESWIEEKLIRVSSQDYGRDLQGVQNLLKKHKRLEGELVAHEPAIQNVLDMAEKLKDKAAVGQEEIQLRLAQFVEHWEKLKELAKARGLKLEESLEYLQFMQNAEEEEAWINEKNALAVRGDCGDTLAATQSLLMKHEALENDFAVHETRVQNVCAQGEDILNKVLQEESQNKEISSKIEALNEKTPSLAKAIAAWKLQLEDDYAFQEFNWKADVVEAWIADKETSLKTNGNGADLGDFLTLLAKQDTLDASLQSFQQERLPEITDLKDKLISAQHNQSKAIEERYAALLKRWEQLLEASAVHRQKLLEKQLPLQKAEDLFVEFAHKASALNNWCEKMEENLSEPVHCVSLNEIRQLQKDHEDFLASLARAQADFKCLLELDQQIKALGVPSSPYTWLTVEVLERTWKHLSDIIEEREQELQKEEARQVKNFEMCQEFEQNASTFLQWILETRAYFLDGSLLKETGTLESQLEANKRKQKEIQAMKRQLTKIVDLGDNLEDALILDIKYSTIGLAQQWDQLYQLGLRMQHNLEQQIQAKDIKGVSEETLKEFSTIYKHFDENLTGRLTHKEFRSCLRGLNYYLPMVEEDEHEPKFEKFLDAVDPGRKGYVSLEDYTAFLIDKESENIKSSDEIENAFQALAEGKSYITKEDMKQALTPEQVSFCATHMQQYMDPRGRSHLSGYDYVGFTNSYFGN
Sequence of UniProt P02549 (P11277 2-2137, chain 2 of 2, further chain): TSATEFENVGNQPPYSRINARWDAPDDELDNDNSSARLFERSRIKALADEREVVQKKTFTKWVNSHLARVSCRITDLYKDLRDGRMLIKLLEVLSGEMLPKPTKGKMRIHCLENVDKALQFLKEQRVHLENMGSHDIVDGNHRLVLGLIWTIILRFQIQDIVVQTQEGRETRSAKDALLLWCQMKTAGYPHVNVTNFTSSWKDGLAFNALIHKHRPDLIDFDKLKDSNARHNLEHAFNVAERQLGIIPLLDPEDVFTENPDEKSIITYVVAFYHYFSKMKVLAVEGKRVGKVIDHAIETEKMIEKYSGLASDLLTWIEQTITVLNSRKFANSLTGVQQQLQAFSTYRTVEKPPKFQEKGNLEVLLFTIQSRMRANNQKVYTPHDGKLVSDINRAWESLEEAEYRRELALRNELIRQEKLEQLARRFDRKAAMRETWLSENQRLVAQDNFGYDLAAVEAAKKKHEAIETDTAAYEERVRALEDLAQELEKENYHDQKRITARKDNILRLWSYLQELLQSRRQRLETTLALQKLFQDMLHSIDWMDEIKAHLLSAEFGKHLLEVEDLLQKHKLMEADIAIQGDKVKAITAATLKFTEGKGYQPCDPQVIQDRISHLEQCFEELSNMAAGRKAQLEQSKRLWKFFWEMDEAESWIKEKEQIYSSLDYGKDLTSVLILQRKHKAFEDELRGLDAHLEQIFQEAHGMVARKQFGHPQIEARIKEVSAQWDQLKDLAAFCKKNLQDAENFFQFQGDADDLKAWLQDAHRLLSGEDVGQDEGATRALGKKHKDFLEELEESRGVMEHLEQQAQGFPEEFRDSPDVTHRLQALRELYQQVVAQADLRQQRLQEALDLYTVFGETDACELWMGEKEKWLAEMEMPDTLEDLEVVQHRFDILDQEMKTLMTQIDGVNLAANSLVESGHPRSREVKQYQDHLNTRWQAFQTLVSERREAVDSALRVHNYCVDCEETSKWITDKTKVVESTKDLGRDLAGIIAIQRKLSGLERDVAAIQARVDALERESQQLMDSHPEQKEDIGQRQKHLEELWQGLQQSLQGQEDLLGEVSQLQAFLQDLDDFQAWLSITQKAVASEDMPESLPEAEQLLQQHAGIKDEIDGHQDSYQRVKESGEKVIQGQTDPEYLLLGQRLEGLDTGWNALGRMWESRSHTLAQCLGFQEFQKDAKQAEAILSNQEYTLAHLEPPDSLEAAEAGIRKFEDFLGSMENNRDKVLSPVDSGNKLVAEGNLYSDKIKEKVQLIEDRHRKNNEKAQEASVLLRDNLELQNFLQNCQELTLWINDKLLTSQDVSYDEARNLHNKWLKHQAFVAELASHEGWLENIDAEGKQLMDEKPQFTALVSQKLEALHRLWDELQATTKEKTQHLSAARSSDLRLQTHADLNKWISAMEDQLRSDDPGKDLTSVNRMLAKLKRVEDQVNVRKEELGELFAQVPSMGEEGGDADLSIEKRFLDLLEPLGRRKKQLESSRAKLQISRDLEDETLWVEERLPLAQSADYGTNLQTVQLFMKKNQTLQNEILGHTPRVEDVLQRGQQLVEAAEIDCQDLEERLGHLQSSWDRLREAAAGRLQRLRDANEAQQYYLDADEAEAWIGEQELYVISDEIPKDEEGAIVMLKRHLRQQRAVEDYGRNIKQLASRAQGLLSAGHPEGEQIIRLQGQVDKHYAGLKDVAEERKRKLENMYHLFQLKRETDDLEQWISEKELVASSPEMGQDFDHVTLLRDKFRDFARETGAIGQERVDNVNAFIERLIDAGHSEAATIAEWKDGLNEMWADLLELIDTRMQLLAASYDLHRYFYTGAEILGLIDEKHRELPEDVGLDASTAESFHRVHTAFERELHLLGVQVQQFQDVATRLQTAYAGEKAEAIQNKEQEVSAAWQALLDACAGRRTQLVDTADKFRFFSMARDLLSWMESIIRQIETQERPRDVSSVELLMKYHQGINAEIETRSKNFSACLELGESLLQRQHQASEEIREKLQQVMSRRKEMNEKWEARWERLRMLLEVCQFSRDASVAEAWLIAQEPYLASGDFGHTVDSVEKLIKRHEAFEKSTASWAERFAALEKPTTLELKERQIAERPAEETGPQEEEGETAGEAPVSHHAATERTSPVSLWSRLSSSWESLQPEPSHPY

| Substance | Kd [1] [nM] | Kd [2] [µM] | Kd [3] [nM] |
| --- | --- | --- | --- |
| His-tagged recombinant SURFIN4.2 WRD2 (second tryptophan-rich domain of SURFIN4.2, amino acids 1349-1567), expressed in E. coli (domain or fragment) | 510 | 5.16 | – |
| RESA (from UniProt P13830) | – | – | 880 |
